Values quoted from earlier work as cited in paper PMC9585055.

Target: cellular prion protein PrPC (Homo sapiens) (UniProt P04156)

tissue-type plasminogen activator (from UniProt P00750)
Kd: 2.5 nM
